Starred links: 1 amine or outer side, 2 acyl side, 3 side chain; linkers in the order of their positions; H or OH if unused. Non-standard residues stand in square brackets, D forms with d. *: point of attachment. Pipz(1-CH2CO,4-CH2CH2NH) = O=C(CN1CCN(CCN[*:1])CC1)[*:2]; C18 diacid = O=C(O)CCCCCCCCCCCCCCCCC(=O)*; γGlu = O=C(O)[C@H](CCC(=O)[*:2])N[*:1]; 2Pal = N[C@@H](Cc1ccccn1)C(=O)O; 3Pal = N[C@@H](Cc1cccnc1)C(=O)O; 4Pal = N[C@@H](Cc1ccncc1)C(=O)O; NMeL = CN[C@@H](CC(C)C)C(=O)O; NMeA = CN[C@@H](C)C(=O)O; Nle = CCCC[C@H](N)C(=O)O; Sar = CNCC(=O)O
T1: human neuromedin U receptor 1 (human, UniProt Q9HB89 24-426)
T1 sequence (looked up): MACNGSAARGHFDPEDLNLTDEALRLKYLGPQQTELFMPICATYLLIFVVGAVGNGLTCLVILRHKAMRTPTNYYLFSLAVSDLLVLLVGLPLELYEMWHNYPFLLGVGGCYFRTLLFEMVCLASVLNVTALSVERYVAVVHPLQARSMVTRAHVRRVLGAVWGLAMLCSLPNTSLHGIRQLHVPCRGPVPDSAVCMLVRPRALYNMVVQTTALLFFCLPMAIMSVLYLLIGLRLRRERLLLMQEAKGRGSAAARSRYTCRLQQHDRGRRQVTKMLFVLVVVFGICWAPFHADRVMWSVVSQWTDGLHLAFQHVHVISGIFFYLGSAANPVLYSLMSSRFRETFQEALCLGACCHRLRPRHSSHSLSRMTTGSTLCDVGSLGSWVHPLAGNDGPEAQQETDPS


molecular target: T1, human neuromedin U receptor 1; experiment: cell-based or functional assay

Binder | EC50 (hNMUR1) buffer
EEEXXXXXXXXXXXXXXXXYFLXHARG (HELM PEPTIDE1{[O=C(O)CCCCCCCCCCCCCCCCC(=O)[*:2]].[gGlu].[gGlu].[gGlu].[Sar].[Sar].[Sar].[Sar].[Sar].[Sar].[Sar].[Sar].[Sar].[Sar].[Sar].[Sar].[Sar].[Sar].[Sar].[O=C(CN1CCN(CCN[*:1])CC1)[*:2]].Y.F.[meL].[Nle].H.[meA].R.G.[am]}$$$$V2.0; SMILES CCCC[C@H](NC(=O)[C@H](CC(C)C)N(C)C(=O)[C@H](Cc1ccccc1)NC(=O)[C@H](Cc1ccc(O)cc1)NC(=O)CN1CCN(CCNC(=O)CN(C)C(=O)CN(C)C(=O)CN(C)C(=O)CN(C)C(=O)CN(C)C(=O)CN(C)C(=O)CN(C)C(=O)CN(C)C(=O)CN(C)C(=O)CN(C)C(=O)CN(C)C(=O)CN(C)C(=O)CN(C)C(=O)CN(C)C(=O)CN(C)C(=O)CC[C@H](NC(=O)CC[C@H](NC(=O)CC[C@H](NC(=O)CCCCCCCCCCCCCCCCC(=O)O)C(=O)O)C(=O)O)C(=O)O)CC1)C(=O)N[C@@H](Cc1c[nH]cn1)C(=O)N(C)[C@@H](C)C(=O)N[C@@H](CCCNC(=N)N)C(=O)NCC(N)=O) [C18DA-gGlu3-Sar15-AEPipAc-Tyr-Phe-NMeLeu-Nle-His-NMeAla-Arg-Gly-NH2] | > 1000 nM
{C18 diacid}-[γGlu][γGlu][γGlu][Sar][Sar][Sar][Sar][Sar][Sar][Sar][Sar][Sar][Sar][Sar][Sar][Sar][Sar][Sar][Pipz(1-CH2CO,4-CH2CH2NH)]YF[NMeL][Nle][2Pal]PRG-NH2 (SMILES CCCC[C@H](NC(=O)[C@H](CC(C)C)N(C)C(=O)[C@H](Cc1ccccc1)NC(=O)[C@H](Cc1ccc(O)cc1)NC(=O)CN1CCN(CCNC(=O)CN(C)C(=O)CN(C)C(=O)CN(C)C(=O)CN(C)C(=O)CN(C)C(=O)CN(C)C(=O)CN(C)C(=O)CN(C)C(=O)CN(C)C(=O)CN(C)C(=O)CN(C)C(=O)CN(C)C(=O)CN(C)C(=O)CN(C)C(=O)CN(C)C(=O)CC[C@H](NC(=O)CC[C@H](NC(=O)CC[C@H](NC(=O)CCCCCCCCCCCCCCCCC(=O)O)C(=O)O)C(=O)O)C(=O)O)CC1)C(=O)N[C@@H](Cc1ccccn1)C(=O)N1CCC[C@H]1C(=O)N[C@@H](CCCNC(=N)N)C(=O)NCC(N)=O) [C18DA-gGlu3-Sar15-AEPipAc-Tyr-Phe-NMeLeu-Nle-2Pal-Pro-Arg-Gly-NH2] | > 1000 nM
{C18 diacid}-[γGlu][γGlu][γGlu][Sar][Sar][Sar][Sar][Sar][Sar][Sar][Sar][Sar][Sar][Sar][Sar][Sar][Sar][Sar][Pipz(1-CH2CO,4-CH2CH2NH)]YF[NMeL][Nle][3Pal][NMeA]RG-NH2 (SMILES CCCC[C@H](NC(=O)[C@H](CC(C)C)N(C)C(=O)[C@H](Cc1ccccc1)NC(=O)[C@H](Cc1ccc(O)cc1)NC(=O)CN1CCN(CCNC(=O)CN(C)C(=O)CN(C)C(=O)CN(C)C(=O)CN(C)C(=O)CN(C)C(=O)CN(C)C(=O)CN(C)C(=O)CN(C)C(=O)CN(C)C(=O)CN(C)C(=O)CN(C)C(=O)CN(C)C(=O)CN(C)C(=O)CN(C)C(=O)CN(C)C(=O)CC[C@H](NC(=O)CC[C@H](NC(=O)CC[C@H](NC(=O)CCCCCCCCCCCCCCCCC(=O)O)C(=O)O)C(=O)O)C(=O)O)CC1)C(=O)N[C@@H](Cc1cccnc1)C(=O)N(C)[C@@H](C)C(=O)N[C@@H](CCCNC(=N)N)C(=O)NCC(N)=O) [C18DA-gGlu3-Sar15-AEPipAc-Tyr-Phe-NMeLeu-Nle-3Pal-NMeAla-Arg-Gly-NH2] | > 1000 nM
{C18 diacid}-[γGlu][γGlu][γGlu][Sar][Sar][Sar][Sar][Sar][Sar][Sar][Sar][Sar][Sar][Sar][Sar][Sar][Sar][Sar][Pipz(1-CH2CO,4-CH2CH2NH)]YF[NMeL][Nle][4Pal][NMeA]RG-NH2 (SMILES CCCC[C@H](NC(=O)[C@H](CC(C)C)N(C)C(=O)[C@H](Cc1ccccc1)NC(=O)[C@H](Cc1ccc(O)cc1)NC(=O)CN1CCN(CCNC(=O)CN(C)C(=O)CN(C)C(=O)CN(C)C(=O)CN(C)C(=O)CN(C)C(=O)CN(C)C(=O)CN(C)C(=O)CN(C)C(=O)CN(C)C(=O)CN(C)C(=O)CN(C)C(=O)CN(C)C(=O)CN(C)C(=O)CN(C)C(=O)CN(C)C(=O)CC[C@H](NC(=O)CC[C@H](NC(=O)CC[C@H](NC(=O)CCCCCCCCCCCCCCCCC(=O)O)C(=O)O)C(=O)O)C(=O)O)CC1)C(=O)N[C@@H](Cc1ccncc1)C(=O)N(C)[C@@H](C)C(=O)N[C@@H](CCCNC(=N)N)C(=O)NCC(N)=O) [C18DA-gGlu3-Sar15-AEPipAc-Tyr-Phe-NMeLeu-Nle-4Pal-NMeAla-Arg-Gly-NH2] | > 1000 nM
EEEXXXXXXXXXXXXXYFLXXARG (HELM PEPTIDE1{[O=C(O)CCCCCCCCCCCCCCCCCCC(=O)[*:2]].[gGlu].[gGlu].[gGlu].[Sar].[Sar].[Sar].[Sar].[Sar].[Sar].[Sar].[Sar].[Sar].[Sar].[Sar].[Sar].[O=C(CN1CCN(CCN[*:1])CC1)[*:2]].Y.F.[meL].[Nle].[Dab].[meA].R.G.[am]}$$$$V2.0; SMILES CCCC[C@H](NC(=O)[C@H](CC(C)C)N(C)C(=O)[C@H](Cc1ccccc1)NC(=O)[C@H](Cc1ccc(O)cc1)NC(=O)CN1CCN(CCNC(=O)CN(C)C(=O)CN(C)C(=O)CN(C)C(=O)CN(C)C(=O)CN(C)C(=O)CN(C)C(=O)CN(C)C(=O)CN(C)C(=O)CN(C)C(=O)CN(C)C(=O)CN(C)C(=O)CN(C)C(=O)CC[C@H](NC(=O)CC[C@H](NC(=O)CC[C@H](NC(=O)CCCCCCCCCCCCCCCCCCC(=O)O)C(=O)O)C(=O)O)C(=O)O)CC1)C(=O)N[C@@H](CCN)C(=O)N(C)[C@@H](C)C(=O)N[C@@H](CCCNC(=N)N)C(=O)NCC(N)=O) [C20DA-gGlu3-Sar12-AEPipAc-Tyr-Phe-NMeLeu-Nle-Dbu-NMeAla-Arg-Gly-NH2] | > 1000 nM
EEEXXXXXXXXXXYFLXXPRG (HELM PEPTIDE1{[O=C(O)CCCCCCCCCCCCCCCCCCC(=O)[*:2]].[gGlu].[gGlu].[gGlu].[Sar].[Sar].[Sar].[Sar].[Sar].[Sar].[Sar].[Sar].[Sar].[O=C(CN1CCN(CCN[*:1])CC1)[*:2]].Y.F.[meL].[Nle].[Dab].P.R.G.[am]}$$$$V2.0; SMILES CCCC[C@H](NC(=O)[C@H](CC(C)C)N(C)C(=O)[C@H](Cc1ccccc1)NC(=O)[C@H](Cc1ccc(O)cc1)NC(=O)CN1CCN(CCNC(=O)CN(C)C(=O)CN(C)C(=O)CN(C)C(=O)CN(C)C(=O)CN(C)C(=O)CN(C)C(=O)CN(C)C(=O)CN(C)C(=O)CN(C)C(=O)CC[C@H](NC(=O)CC[C@H](NC(=O)CC[C@H](NC(=O)CCCCCCCCCCCCCCCCCCC(=O)O)C(=O)O)C(=O)O)C(=O)O)CC1)C(=O)N[C@@H](CCN)C(=O)N1CCC[C@H]1C(=O)N[C@@H](CCCNC(=N)N)C(=O)NCC(N)=O) [C20DA-gGlu3-Sar9-AEPipAc-Tyr-Phe-NMeLeu-Nle-Dbu-Pro-Arg-Gly-NH2] | 540 nM
EEEXXXXXXXXXXYFLXXARG (HELM PEPTIDE1{[O=C(O)CCCCCCCCCCCCCCCCCCC(=O)[*:2]].[gGlu].[gGlu].[gGlu].[Sar].[Sar].[Sar].[Sar].[Sar].[Sar].[Sar].[Sar].[Sar].[O=C(CN1CCN(CCN[*:1])CC1)[*:2]].Y.F.[meL].[Nle].[Dab].[meA].R.G.[am]}$$$$V2.0; SMILES CCCC[C@H](NC(=O)[C@H](CC(C)C)N(C)C(=O)[C@H](Cc1ccccc1)NC(=O)[C@H](Cc1ccc(O)cc1)NC(=O)CN1CCN(CCNC(=O)CN(C)C(=O)CN(C)C(=O)CN(C)C(=O)CN(C)C(=O)CN(C)C(=O)CN(C)C(=O)CN(C)C(=O)CN(C)C(=O)CN(C)C(=O)CC[C@H](NC(=O)CC[C@H](NC(=O)CC[C@H](NC(=O)CCCCCCCCCCCCCCCCCCC(=O)O)C(=O)O)C(=O)O)C(=O)O)CC1)C(=O)N[C@@H](CCN)C(=O)N(C)[C@@H](C)C(=O)N[C@@H](CCCNC(=N)N)C(=O)NCC(N)=O) [C20DA-gGlu3-Sar9-AEPipAc-Tyr-Phe-NMeLeu-Nle-Dbu-NMeAla-Arg-Gly-NH2] | > 1000 nM
EEEXXXXXXXXXXYFLXRARG (HELM PEPTIDE1{[O=C(O)CCCCCCCCCCCCCCCCCCC(=O)[*:2]].[gGlu].[gGlu].[gGlu].[Sar].[Sar].[Sar].[Sar].[Sar].[Sar].[Sar].[Sar].[Sar].[O=C(CN1CCN(CCN[*:1])CC1)[*:2]].Y.F.[meL].[Nle].R.[meA].R.G.[am]}$$$$V2.0; SMILES CCCC[C@H](NC(=O)[C@H](CC(C)C)N(C)C(=O)[C@H](Cc1ccccc1)NC(=O)[C@H](Cc1ccc(O)cc1)NC(=O)CN1CCN(CCNC(=O)CN(C)C(=O)CN(C)C(=O)CN(C)C(=O)CN(C)C(=O)CN(C)C(=O)CN(C)C(=O)CN(C)C(=O)CN(C)C(=O)CN(C)C(=O)CC[C@H](NC(=O)CC[C@H](NC(=O)CC[C@H](NC(=O)CCCCCCCCCCCCCCCCCCC(=O)O)C(=O)O)C(=O)O)C(=O)O)CC1)C(=O)N[C@@H](CCCNC(=N)N)C(=O)N(C)[C@@H](C)C(=O)N[C@@H](CCCNC(=N)N)C(=O)NCC(N)=O) [C20DA-gGlu3-Sar9-AEPipAc-Tyr-Phe-NMeLeu-Nle-Arg-NMeAla-Arg-Gly-NH2] | 440 nM
EEEXXXXXXXXXXXXXYFLXRARG (HELM PEPTIDE1{[O=C(O)CCCCCCCCCCCCCCCCCCC(=O)[*:2]].[gGlu].[gGlu].[gGlu].[Sar].[Sar].[Sar].[Sar].[Sar].[Sar].[Sar].[Sar].[Sar].[Sar].[Sar].[Sar].[O=C(CN1CCN(CCN[*:1])CC1)[*:2]].Y.F.[meL].[Nle].R.[meA].R.G.[am]}$$$$V2.0; SMILES CCCC[C@H](NC(=O)[C@H](CC(C)C)N(C)C(=O)[C@H](Cc1ccccc1)NC(=O)[C@H](Cc1ccc(O)cc1)NC(=O)CN1CCN(CCNC(=O)CN(C)C(=O)CN(C)C(=O)CN(C)C(=O)CN(C)C(=O)CN(C)C(=O)CN(C)C(=O)CN(C)C(=O)CN(C)C(=O)CN(C)C(=O)CN(C)C(=O)CN(C)C(=O)CN(C)C(=O)CC[C@H](NC(=O)CC[C@H](NC(=O)CC[C@H](NC(=O)CCCCCCCCCCCCCCCCCCC(=O)O)C(=O)O)C(=O)O)C(=O)O)CC1)C(=O)N[C@@H](CCCNC(=N)N)C(=O)N(C)[C@@H](C)C(=O)N[C@@H](CCCNC(=N)N)C(=O)NCC(N)=O) [C20DA-gGlu3-Sar12-AEPipAc-Tyr-Phe-NMeLeu-Nle-Arg-NMeAla-Arg-Gly-NH2] | 670 nM
